Test [1] has as its target TβRII ectodomain (human) (UniProt P37173). The experiment in a line: ITC.
Test [2] concerns the target biotinylated avi-tagged TβRII (human) (UniProt P37173). As to the kind of experiment: SPR. On the technique in general: In SPR one partner is held on a chip, and binding of the other changes the refractive index at the surface.
The target in test [3] is TβRI ectodomain (human) (UniProt P36897). The experiment in a line: ITC. For orientation: Isothermal titration calorimetry measures the heat released or taken up as one component is titrated into another.
The target in test [4] is biotinylated avi-tagged TβRI (human) (UniProt P36897). The experiment in a line: SPR.
Test [5] has as its target TβRI ectodomain (human) (UniProt P36897). As to the kind of experiment: SEC-MALS. For orientation: SEC sorts molecules by how far they enter the pores of the column.

TβRII ectodomain (human), sequence (P37173 23-166): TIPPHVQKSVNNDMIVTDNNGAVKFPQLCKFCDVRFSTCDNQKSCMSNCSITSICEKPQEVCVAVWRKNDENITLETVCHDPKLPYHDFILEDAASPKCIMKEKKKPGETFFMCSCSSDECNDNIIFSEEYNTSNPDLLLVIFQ
biotinylated avi-tagged TβRI (human), sequence (P36897 34-503): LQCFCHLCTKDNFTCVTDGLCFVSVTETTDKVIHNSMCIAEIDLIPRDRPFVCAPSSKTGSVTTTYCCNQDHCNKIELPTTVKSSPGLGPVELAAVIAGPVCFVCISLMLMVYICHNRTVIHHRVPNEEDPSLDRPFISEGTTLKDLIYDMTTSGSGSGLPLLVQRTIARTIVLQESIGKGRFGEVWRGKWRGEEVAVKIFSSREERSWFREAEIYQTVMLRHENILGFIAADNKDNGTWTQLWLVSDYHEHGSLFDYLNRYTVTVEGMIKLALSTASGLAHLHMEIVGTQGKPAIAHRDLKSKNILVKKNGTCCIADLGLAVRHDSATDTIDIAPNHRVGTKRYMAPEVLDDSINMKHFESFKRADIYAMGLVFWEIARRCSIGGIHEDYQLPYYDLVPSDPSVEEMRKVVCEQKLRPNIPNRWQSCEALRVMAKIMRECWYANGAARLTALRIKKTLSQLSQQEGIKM
TβRI ectodomain (human), sequence (P36897 34-126): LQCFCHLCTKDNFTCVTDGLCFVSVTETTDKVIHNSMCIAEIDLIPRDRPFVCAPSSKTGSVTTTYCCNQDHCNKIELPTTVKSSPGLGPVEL
biotinylated avi-tagged TβRII (human), sequence (P37173 23-567): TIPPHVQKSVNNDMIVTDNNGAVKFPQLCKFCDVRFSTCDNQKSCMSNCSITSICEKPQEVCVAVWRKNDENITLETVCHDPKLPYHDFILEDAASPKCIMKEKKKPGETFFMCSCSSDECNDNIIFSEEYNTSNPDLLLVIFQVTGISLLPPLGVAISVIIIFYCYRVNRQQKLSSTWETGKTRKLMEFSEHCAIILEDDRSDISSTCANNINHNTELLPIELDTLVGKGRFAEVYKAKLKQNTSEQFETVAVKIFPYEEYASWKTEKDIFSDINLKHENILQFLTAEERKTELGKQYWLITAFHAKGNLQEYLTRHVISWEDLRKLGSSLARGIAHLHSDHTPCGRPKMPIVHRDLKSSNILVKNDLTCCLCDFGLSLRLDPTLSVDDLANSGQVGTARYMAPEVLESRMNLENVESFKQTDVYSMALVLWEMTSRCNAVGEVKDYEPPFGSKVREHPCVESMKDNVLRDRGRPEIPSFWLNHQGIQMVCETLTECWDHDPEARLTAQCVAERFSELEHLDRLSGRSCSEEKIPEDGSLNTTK
TGF-β3:TβRII binary complex, sequence (P37173 whole entry, looked up, one chain of several): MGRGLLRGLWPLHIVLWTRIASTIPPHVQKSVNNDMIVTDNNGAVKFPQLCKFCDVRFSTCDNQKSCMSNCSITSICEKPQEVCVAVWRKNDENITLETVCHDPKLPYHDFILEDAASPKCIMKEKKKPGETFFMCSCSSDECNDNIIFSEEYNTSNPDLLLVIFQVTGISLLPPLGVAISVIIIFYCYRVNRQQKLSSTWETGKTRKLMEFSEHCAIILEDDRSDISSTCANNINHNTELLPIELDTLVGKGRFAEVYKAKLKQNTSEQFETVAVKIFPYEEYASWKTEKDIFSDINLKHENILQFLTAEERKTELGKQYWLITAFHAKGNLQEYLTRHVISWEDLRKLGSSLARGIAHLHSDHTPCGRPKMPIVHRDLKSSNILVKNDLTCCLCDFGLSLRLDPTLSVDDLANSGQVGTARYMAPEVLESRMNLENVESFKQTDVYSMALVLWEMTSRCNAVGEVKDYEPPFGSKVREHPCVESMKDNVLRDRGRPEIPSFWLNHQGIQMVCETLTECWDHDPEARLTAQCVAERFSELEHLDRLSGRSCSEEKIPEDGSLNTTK

In the case of TGM domain 3 (domain or fragment), the Kd – broadly, the free concentration of one partner at which half of the binding sites on the other are occupied at equilibrium, for simple one-to-one binding – in test [1] turned out to be 1150 nM; in test [2], 910 nM. Also, in test [1], the dH is -10.7 kcal/mol.
In test [3], “TGF-β3:TβRII binary complex (from UniProt P37173 23-166)” came in with a Kd of 61.7 nM and a dH of -4.21 kcal/mol.
In test [3], “TGM domains 1 and 2 (domain or fragment)” showed a Kd of 25.3 nM and a dH of -18.7 kcal/mol. For the same substance, in test [4], the Kd stood at 24100 nM.
Regarding “full-length TGM (TGF-β mimic of Heligmosomoides polygyrus) (natural protein)”, the Kd in test [3] came out at 52.1 nM; in test [1], 550 nM; in test [4], 13.1 nM; in test [2] it was 610 nM. The figures for the dH in test [3] and in test [1] were -16.7 kcal/mol and -7.14 kcal/mol, respectively.
Regarding TGM domain 2 (domain or fragment), in test [5], the stoichiometry N (as a rule, the number of molecules, sites or subunits per partner or assembly) is 1. In test [3], this substance had a Kd of 1470 nM and a dH of -17.7 kcal/mol. In addition, the dissociation constant Kd in test [4] is 309 nM.
